This is an account of results in article doi:10.1101/2020.10.21.349357 (bioRxiv, 2020).

For experiment [1], the target named is linear tetra-ubiquitin (UniProt P0CG48 1-76; P0CG48 1-76; P0CG48 1-76; P0CG48 1-76). Put plainly: co-IP.
In experiment [2] the target is linear hepta-ubiquitin (UniProt P0CG48 1-76; P0CG48 1-76; P0CG48 1-76; P0CG48 1-76; P0CG48 1-76; P0CG48 1-76; …). Put plainly: co-IP.
linear hepta-ubiquitin, sequence (P0CG48 1-532, one chain of several): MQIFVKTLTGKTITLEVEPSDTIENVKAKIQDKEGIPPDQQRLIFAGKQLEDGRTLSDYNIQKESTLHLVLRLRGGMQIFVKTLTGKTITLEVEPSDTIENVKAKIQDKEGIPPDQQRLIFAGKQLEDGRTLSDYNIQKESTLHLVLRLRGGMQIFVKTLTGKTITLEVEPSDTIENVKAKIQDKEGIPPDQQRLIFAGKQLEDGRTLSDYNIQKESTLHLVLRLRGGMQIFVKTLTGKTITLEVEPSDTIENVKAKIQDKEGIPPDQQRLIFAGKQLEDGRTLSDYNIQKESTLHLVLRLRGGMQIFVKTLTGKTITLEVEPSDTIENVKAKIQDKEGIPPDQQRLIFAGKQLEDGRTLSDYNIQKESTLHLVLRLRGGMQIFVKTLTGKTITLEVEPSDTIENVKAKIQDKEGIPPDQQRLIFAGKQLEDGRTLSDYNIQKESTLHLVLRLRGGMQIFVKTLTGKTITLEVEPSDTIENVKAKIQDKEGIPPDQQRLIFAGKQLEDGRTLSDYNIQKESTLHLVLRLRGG

linear tetra-ubiquitin, sequence (P0CG48 1-304, one chain of several): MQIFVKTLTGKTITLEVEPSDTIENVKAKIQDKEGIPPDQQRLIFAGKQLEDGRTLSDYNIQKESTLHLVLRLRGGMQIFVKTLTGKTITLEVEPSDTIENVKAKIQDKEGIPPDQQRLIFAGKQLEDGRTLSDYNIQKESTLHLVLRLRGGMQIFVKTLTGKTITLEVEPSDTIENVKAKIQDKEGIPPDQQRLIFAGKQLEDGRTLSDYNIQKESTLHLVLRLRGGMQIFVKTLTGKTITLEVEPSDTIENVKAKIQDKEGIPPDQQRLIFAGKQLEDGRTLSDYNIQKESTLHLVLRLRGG

B1: HA-tagged N4BP1 (full length) (natural protein, human, UniProt O75113 1-896, looked up)
chain: MAARAVLDEFTAPAEKAELLEQSRGRIEGLFGVSLAVLGALGAEEPLPARIWLQLCGAQEAVHSAKEYIKGICEPELEERECYPKDMHCIFVGAESLFLKSLIQDTCADLCILDIGLLGIRGSAEAVVMARSHIQQFVKLFENKENLPSSQKESEVKREFKQFVEAHADNYTMDLLILPTSLKKELLTLTQGEENLFETGDDEVIEMRDSQQTEFTQNAATGLNISRDETVLQEEARNKAGTPVSELTKQMDTVLSSSPDVLFDPINGLTPDEEALSNERICQKRRFSDSEERHTKKQFSLENVQEGEILHDAKTLAGNVIADLSDSSADSENLSPDIKETTEEMEYNILVNFFKTMGYSQEIVEKVIKVYGPSTEPLLLLEEIEKENKRFQEDREFSAGTVYPETNKTKNKGVYSSTNELTTDSTPKKTQAHTQQNMVEKFSQLPFKVEAKPCTSNCRINTFRTVPIEQKHEVWGSNQNYICNTDPETDGLSPSVASPSPKEVNFVSRGASSHQPRVPLFPENGLHQQPEPLLPNNMKSACEKRLGCCSSPHSKPNCSTLSPPMPLPQLLPSVTDARSAGPSDHIDSSVTGVQRFRDTLKIPYKLELKNEPGRTDLKHIVIDGSNVAITHGLKKFFSCRGIAIAVEYFWKLGNRNITVFVPQWRTRRDPNVTEQHFLTQLQELGILSLTPARMVFGERIASHDDRFLLHLADKTGGIIVTNDNFREFVNESVSWREIITKRLLQYTFVGDIFMVPDDPLGRSGPRLEEFLQKEVCLRDMQPLLSALPNVGMFDPSFRVPGTQAASTSHQPPTRIQGAPSSHWLPQQPHFPLLPALPSLQQNLPMPAQRSSAETNELREALLKIFPDSEQRLKIDQILVAHPYMKDLNALSAMVLD
B1: the binding result in experiment [1] and in experiment [2] was “binds” in each case.
